These results are taken from PMC2668917.

The target of the experiment is GST-tagged Nup358-IR (Nup358 internal repeat/E3 ligase domain) (UniProt P49792). Description: SPR. On the technique in general: SPR reads the build-up and loss of mass on a sensor chip optically.
Regarding “SUMO-1 modified His-RanGAP1-NΔ419 (from UniProt P46061 420-589; P63165 1-97)”, the Kd is 7 nM. In the case of “SUMO-1/2 chimera modified His-RanGAP1-NΔ419 (from UniProt P46061 420-589; P63165 1-30; P55854 26-46; P63165 52-97)” it was 20 nM; in that of “SUMO-2 modified His-RanGAP1-NΔ419 (from UniProt P46061 420-589; P55854 1-92)”, 36 nM.

Broadly, the Kd is the free concentration of one partner at which half of the binding sites on the other are occupied at equilibrium, for simple one-to-one binding. Read a low Kd as tighter binding.
